Experimental data: paper PMC3299299, “Recombinant Expression and Characterization of Human and Murine ACE2: Species-Specific Activation of the Alternative Renin-Angiotensin-System” (International Journal of Hypertension, 2012)

Biological target: T1, recombinant murine ACE2 (angiotensin-converting enzyme 2), extracellular domain (murine), Q8R0I0
T1 chain: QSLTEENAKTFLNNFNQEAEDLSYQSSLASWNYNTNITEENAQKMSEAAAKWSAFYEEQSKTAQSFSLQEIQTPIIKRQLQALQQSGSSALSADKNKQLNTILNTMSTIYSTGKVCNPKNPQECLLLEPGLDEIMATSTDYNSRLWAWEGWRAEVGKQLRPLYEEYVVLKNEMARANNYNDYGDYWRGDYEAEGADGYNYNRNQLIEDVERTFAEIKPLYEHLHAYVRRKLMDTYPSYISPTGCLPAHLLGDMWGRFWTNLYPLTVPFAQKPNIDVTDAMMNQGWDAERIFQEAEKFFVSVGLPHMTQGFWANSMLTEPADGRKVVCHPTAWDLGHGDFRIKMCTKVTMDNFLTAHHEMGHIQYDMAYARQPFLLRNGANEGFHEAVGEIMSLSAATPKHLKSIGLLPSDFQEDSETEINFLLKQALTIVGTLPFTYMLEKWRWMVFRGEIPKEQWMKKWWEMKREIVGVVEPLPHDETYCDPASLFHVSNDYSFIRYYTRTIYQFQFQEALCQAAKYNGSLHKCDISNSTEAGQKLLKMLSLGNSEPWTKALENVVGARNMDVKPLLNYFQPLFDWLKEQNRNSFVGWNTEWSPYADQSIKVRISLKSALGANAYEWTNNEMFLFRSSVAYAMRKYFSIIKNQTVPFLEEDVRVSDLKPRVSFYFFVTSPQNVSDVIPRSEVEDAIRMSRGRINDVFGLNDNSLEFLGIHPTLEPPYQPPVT
Assay: native gel or EMSA; native PAGE, 2 ug protein on a precast native 3-12% gradient gel, Bis/Tris-Tricine buffers, 150 V for 80 min, Coomassie stain; single band at approximately 170 kDa; monomer to dimer
Details: remark: other sources report otherwise

B1: recombinant murine ACE2 (angiotensin-converting enzyme 2), extracellular domain, Q8R0I0 18-740 (enzyme)
chain: T1 chain
Q: B1 was tested. Which stoichiometry N did it give?
A: 2
